Measurements as given in article PMC2665295.
Like-named read-outs stand apart in the source and are kept apart here. Blank lines part the entries; values can stand above or below the substance they belong to.

Tests used:
[1] = biological target: rat αCaMKII (Ca2+/calmodulin-dependent protein kinase II, α subunit) (rat) (UniProt P11275)
[2] = biological target: rat αCaMKII (Ca2+/calmodulin-dependent protein kinase II, α subunit) (rat) (UniProt P11275); experiment: ITC
[3] = biological target: rat αCaMKII (Ca2+/calmodulin-dependent protein kinase II, α subunit) (rat) (UniProt P11275); experiment: ITC; remark: listed apart in the source
[4] = biological target: rat αCaMKII (Ca2+/calmodulin-dependent protein kinase II, α subunit) (rat) (UniProt P11275); experiment: ITC; remark: listed apart in the source
[5] = biological target: rat αCaMKII (Ca2+/calmodulin-dependent protein kinase II, α subunit) (rat) (UniProt P11275); experiment: ITC; remark: listed apart in the source

Chain of rat αCaMKII (Ca2+/calmodulin-dependent protein kinase II, α subunit) (rat) (P11275 whole entry): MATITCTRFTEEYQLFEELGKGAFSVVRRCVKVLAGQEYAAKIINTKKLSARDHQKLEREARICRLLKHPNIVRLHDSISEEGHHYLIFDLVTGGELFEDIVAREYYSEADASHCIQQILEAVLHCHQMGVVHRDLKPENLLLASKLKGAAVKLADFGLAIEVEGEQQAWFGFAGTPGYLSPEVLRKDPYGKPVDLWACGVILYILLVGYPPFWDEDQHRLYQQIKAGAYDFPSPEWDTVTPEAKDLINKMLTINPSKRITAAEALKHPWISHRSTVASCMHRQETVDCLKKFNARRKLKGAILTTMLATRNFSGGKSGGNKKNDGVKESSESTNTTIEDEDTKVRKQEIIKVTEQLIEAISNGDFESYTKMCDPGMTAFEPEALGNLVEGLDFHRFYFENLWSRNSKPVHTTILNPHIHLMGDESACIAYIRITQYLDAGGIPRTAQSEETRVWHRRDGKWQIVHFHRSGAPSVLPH

- activation of CaMKII (phosphorylation of syntide), K0.5 [1]: 1.4 µM
- Kd [2]: 360 nM
- dH [2]: -7.3 kcal/mol
- stoichiometry N [2]: 0.979
- Kd [3]: 370 nM
- dH [3]: -6.5 kcal/mol
- stoichiometry N [3]: 0.84
Substance: CaMCC, a chimeric molecule composed of two C-lobes of CaM

- Kd1 (binding mode 1) [2]: 18 nM
- Kd2 (binding mode 2) [2]: 360 nM
- N1 (binding mode 1) [2]: 0.36
- N2 (binding mode 2) [2]: 0.61
- dH1 (binding mode 1) [2]: -6.3 kcal/mol
- dH2 (binding mode 2) [2]: -14.7 kcal/mol
- Kd1 (binding mode 1) [3]: 0.064 µM
- Kd2 (binding mode 2) [3]: 0.34 µM
- N1 (binding mode 1) [3]: 0.26
- N2 (binding mode 2) [3]: 0.62
- dH1 (binding mode 1) [3]: 0.7 kcal/mol
- dH2 (binding mode 2) [3]: -18.1 kcal/mol
Substance: CaMNN, a chimeric molecule composed of two N-lobes of CaM

- Kd [4]: 1900 nM
- dH [4]: 1.7 kcal/mol
- stoichiometry N [4]: 0.823
- dH [5]: -11.1 kcal/mol
- stoichiometry N [5]: 1.08
- Kd [3]: 1320 nM
- dH [3]: -12.8 kcal/mol
- stoichiometry N [3]: 0.83
Substance: wild-type calmodulin (from UniProt P0DP23 1-149) (natural protein; other documents disagree on this pair)
